This note sets out measurements from the supplement of paper PMC9112550, “Optimization of the antimicrobial peptide Bac7 by deep mutational scanning” (BMC Biology, 2022).
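Further: peptides expressed intracellularly from a pBAD plasmid library in pooled LB shake-flask culture, induced with 0.3% L-arabinose, DNA abundance read by NGS, three biological replicates, DESeq2 with apeglm shrinkage.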

The data set has as its system Escherichia coli TOP10. The data set is described as follows: shrunken log2 fold change of peptide-encoding DNA abundance (4.5 h post-induction vs induction); higher = less antimicrobial activity (less host growth inhibition). To be noted: time post-induction: 4.5 h; library: site-saturation at positions 5, 18, 19, 20.
Regarding RRIRNRPPRLPRPRPRPINKPRP, the “shrunken log2 fold change” value is -0.56.

Turning to RRIRQRPPRLPRPRPRPRAAPRP, the “shrunken log2 fold change” value is 0.506.

For the sequence RRIRTRPPRLPRPRPRPKEEPRP, the “shrunken log2 fold change” value was 0.00448. In the case of RRIRNRPPRLPRPRPRPTDCPRP, the “shrunken log2 fold change” value is -0.484. With RRIRLRPPRLPRPRPRPTTQPRP, the “shrunken log2 fold change” value worked out at 0.216. The result for RRIRIRPPRLPRPRPRPEFSPRP reads 0.00834; that for RRIRLRPPRLPRPRPRPDHMPRP, -0.0422; that for RRIRCRPPRLPRPRPRPSDSPRP, -0.34.

On to RRIRWRPPRLPRPRPRPADSPRP, for which the “shrunken log2 fold change” value was -0.29. As to RRIRFRPPRLPRPRPRPQPVPRP, the “shrunken log2 fold change” value is 0.356. As for RRIRVRPPRLPRPRPRPEFIPRP, the “shrunken log2 fold change” value is -0.176. For the sequence RRIRIRPPRLPRPRPRPSYEPRP, the “shrunken log2 fold change” value is -0.53. Regarding RRIRHRPPRLPRPRPRPGADPRP, the “shrunken log2 fold change” value was determined as 0.255.

On to RRIRLRPPRLPRPRPRPATIPRP, for which the “shrunken log2 fold change” value was -0.0972. For RRIRYRPPRLPRPRPRPDMQPRP the value was 0.0426; for RRIRQRPPRLPRPRPRPTLGPRP, 0.269. On to RRIRMRPPRLPRPRPRPYKVPRP, for which the “shrunken log2 fold change” value was -0.0176. Consider RRIRARPPRLPRPRPRPDIAPRP, for which the “shrunken log2 fold change” value turned out to be 0.668.

Turning to RRIRFRPPRLPRPRPRPCWMPRP, the “shrunken log2 fold change” value was -0.0459. Consider RRIRTRPPRLPRPRPRPMFDPRP, for which the “shrunken log2 fold change” value was -0.0585.

With RRIRIRPPRLPRPRPRPGPVPRP, the “shrunken log2 fold change” value is -0.0724. As to RRIRIRPPRLPRPRPRPYFAPRP, the “shrunken log2 fold change” value was -0.694.

On to RRIRVRPPRLPRPRPRPKLLPRP, for which the “shrunken log2 fold change” value was -0.0409. As to RRIRVRPPRLPRPRPRPPEMPRP, the “shrunken log2 fold change” value is 0.116. Regarding RRIRSRPPRLPRPRPRPLATPRP, the “shrunken log2 fold change” value came to 0.627. Turning to RRIRWRPPRLPRPRPRPPIWPRP, the “shrunken log2 fold change” value was found to be 0.628. For RRIRWRPPRLPRPRPRPVNTPRP the value was -0.0848; for RRIRARPPRLPRPRPRPAPVPRP, 0.627. RRIRNRPPRLPRPRPRPEFAPRP: the “shrunken log2 fold change” value came to 0.175. Regarding RRIRPRPPRLPRPRPRPWADPRP, the “shrunken log2 fold change” value turned out to be 0.0868. In the case of RRIRYRPPRLPRPRPRPHCFPRP, the “shrunken log2 fold change” value is -0.165. As for RRIRDRPPRLPRPRPRPMETPRP, the “shrunken log2 fold change” value is -0.00149.

For the sequence RRIRGRPPRLPRPRPRPKCEPRP, the “shrunken log2 fold change” value amounted to 1.14. In the case of RRIRVRPPRLPRPRPRPAPPPRP, the “shrunken log2 fold change” value turned out to be 0.577. Regarding RRIRGRPPRLPRPRPRPCCRPRP, the “shrunken log2 fold change” value worked out at 0.918. For RRIRQRPPRLPRPRPRPECWPRP the value was 0.358; for RRIRPRPPRLPRPRPRPVNQPRP, 0.223. In the case of RRIRWRPPRLPRPRPRPELTPRP, the “shrunken log2 fold change” value amounted to 0.772.

For RRIRIRPPRLPRPRPRPNQHPRP, the “shrunken log2 fold change” value is -0.337. As for RRIRHRPPRLPRPRPRPKVAPRP, the “shrunken log2 fold change” value was -0.049. RRIRARPPRLPRPRPRPTRNPRP: the “shrunken log2 fold change” value worked out at 0.657. Turning to RRIRDRPPRLPRPRPRPQTCPRP, the “shrunken log2 fold change” value stood at 0.0864.

Turning to RRIRSRPPRLPRPRPRPVGHPRP, the “shrunken log2 fold change” value was -0.376. On to RRIRCRPPRLPRPRPRPAPDPRP, for which the “shrunken log2 fold change” value was determined as 0.576.

With RRIRGRPPRLPRPRPRPMAGPRP, the “shrunken log2 fold change” value was found to be 0.0763. RRIRHRPPRLPRPRPRPTHVPRP: the “shrunken log2 fold change” value was found to be 0.0105. RRIRDRPPRLPRPRPRPMGDPRP: the “shrunken log2 fold change” value was 0.25.

As for RRIRSRPPRLPRPRPRPIFSPRP, the “shrunken log2 fold change” value was -0.617. For RRIRIRPPRLPRPRPRPGSGPRP, the “shrunken log2 fold change” value came out at 0.166. As to RRIRGRPPRLPRPRPRPKCLPRP, the “shrunken log2 fold change” value is -0.0243.
